For experiment [1], the target named is T1, biotinylated recombinant his-tagged MrkA, mixture of monomeric and oligomeric MrkA (Klebsiella pneumoniae, UniProt P12267 23-202, biotin-labeled (Pierce kit; sites not stated)).
T1 construct: also called biotinylated-MrkA; a mixture of monomeric and multimeric MrkA; not shown: his tag
T1 chain: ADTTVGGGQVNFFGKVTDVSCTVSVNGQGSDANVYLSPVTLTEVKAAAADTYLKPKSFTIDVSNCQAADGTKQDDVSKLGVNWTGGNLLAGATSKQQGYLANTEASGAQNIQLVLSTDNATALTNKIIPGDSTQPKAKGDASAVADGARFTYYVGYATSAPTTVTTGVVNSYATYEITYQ
Description: ELISA, biotinylated MrkA captured by streptavidin (title: anti-MrkA IgG binding to bio-MrkA). Background: In an ELISA, binding on a coated surface is turned into a signal by an enzyme label.

For experiment [2], the target named is T2, MrkA on the surface of live or whole K. pneumoniae bacteria (Klebsiella pneumoniae, UniProt P12267 23-202).
T2 construct: Target of whole-bacteria ELISA, FACS and confocal assays; The strain is named under assay in each row; On bacteria MrkA is assembled into fimbriae (oligomeric); also called K. pneumoniae MrkA; type III fimbriae major subunit MrkA
T2 chain: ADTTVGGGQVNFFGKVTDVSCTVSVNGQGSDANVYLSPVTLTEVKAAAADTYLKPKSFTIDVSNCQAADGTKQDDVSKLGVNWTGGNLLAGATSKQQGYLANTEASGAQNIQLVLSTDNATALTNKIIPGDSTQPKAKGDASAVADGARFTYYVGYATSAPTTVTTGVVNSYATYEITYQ
Put plainly: whole cell ELISA on K. pneumoniae strain 29011 (title: Kp29011 ELISA).
Description: Briefly, a single colony of K. pneumoniae was inoculated into 2xYT media until the culture reached log phase. Bacteria were coated onto 384-well plates (Nunc MaxiSorp) overnight at 4° C. […] After blocking with PBS supplemented with 4% BSA (PBS-B), the coated plates were incubated with anti-K. pneumoniae antibodies for 1 h. The plates were then washed with PBS-T (PBS+0.1% Tween 20) before HRP-conjugated secondary antibody was added for 1 h followed by washing and TMB (3, 3′, 5, 5′-Tetrametheylbenzidine) substrate addition. Color development was stopped by adding 0.1 N HCL, and the absorbance at 450 nm was measured by microplate reader (Molecular Devices). The data was plotted with Prism software.

Experiment [3] deals with T1, biotinylated recombinant his-tagged …. Put plainly: ELISA, MrkA protein coated directly onto the plate, not biotinylated (title: anti-MrkA IgG binding to MrkA).
For experiment [4] the target is unchanged. Description: BLI (Octet), biotinylated MrkA on streptavidin sensors, IgG in solution, 1:1 fit.
Description: For affinity measurement, two different formats were used. The first used an IgG against a mixture of monomeric and oligomeric MrkA. The second used a Fab against a monomeric MrkA. A ForteBio Octet QK384 instrument was used to study kinetics of the anti-MrkA mAbs. All the assays were done at 200 μl/well in ForteBio 10× kinetic buffer at 30° C. […] Dissociation of the interaction was probed for 600 seconds. Any systematic baseline drift was corrected by subtracting the shift recorded for a sensor loaded with ligand but incubated without analyte. Octet Data Analysis software version 8.0 was used for curve fitting with the binding equations available for a 1:1 interaction model. Global analyses were done using nonlinear least squares fitting. Goodness of fit for the data were assessed by the generated residual plots, R2 and χ2 values.
For experiment [5], the target named is T3, MrkA with a 40 amino acid N-terminal deletion (MrkA-N-dlt) (Klebsiella pneumoniae, UniProt P12267 41-202).
T3 construct: Lysate of E. coli coated on the ELISA plate; not shown: His tag added at the C terminus
T3 chain: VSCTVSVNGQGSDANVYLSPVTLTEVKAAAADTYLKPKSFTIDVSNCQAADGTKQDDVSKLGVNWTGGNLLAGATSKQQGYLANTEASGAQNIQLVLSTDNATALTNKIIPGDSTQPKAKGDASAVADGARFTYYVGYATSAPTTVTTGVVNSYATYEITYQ
Put plainly: ELISA on plates coated directly with cleared lysate of E. coli expressing the His-tagged construct; y axis without a label.

The target in experiment [6] is T4, MrkA with both the N and C terminal deletions (MrkA-N/C-dlt) (Klebsiella pneumoniae, UniProt P12267 41-170).
T4 construct: Lysate of E. coli coated on the ELISA plate; not shown: His tag added at the C terminus
T4 chain: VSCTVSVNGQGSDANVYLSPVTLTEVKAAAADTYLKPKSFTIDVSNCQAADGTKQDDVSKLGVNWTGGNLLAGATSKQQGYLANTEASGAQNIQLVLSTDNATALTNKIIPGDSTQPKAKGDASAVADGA
The description is as above.

Experiment [7] has as its target T5, monomeric MrkA (purified, BLI) (Klebsiella pneumoniae, UniProt P12267 23-202).
T5 construct: not shown: N terminal 6x his tag from pET28
T5 chain: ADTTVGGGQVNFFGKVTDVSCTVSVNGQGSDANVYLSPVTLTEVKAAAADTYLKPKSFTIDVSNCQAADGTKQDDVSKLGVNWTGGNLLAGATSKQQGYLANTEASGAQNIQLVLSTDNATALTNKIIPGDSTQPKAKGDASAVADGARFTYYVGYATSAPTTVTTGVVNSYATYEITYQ
Description: BLI (Octet), Fab against monomeric MrkA. In general terms: BLI is a label-free optical method that tracks binding on a fibre tip over time.

B1: Kp3 (antibody, IgG1, V domains shown)
VH: QVQLQESGPGLVKPSETLSLTCTVSGGSMNSNSNTYYWGWIRQPPGKGLEWIGTIHSSGRTYYNPSLKSRVTISVDMSKNQFSLNLTSATAADTAVYYCARDLSGASLAPRRPFNYYYYNMDVWGRGTLVTVSS
VL: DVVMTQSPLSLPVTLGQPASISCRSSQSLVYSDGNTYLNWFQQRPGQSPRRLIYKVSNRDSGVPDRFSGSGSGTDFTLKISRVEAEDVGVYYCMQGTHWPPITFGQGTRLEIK
notes: constant regions are not; also called anti-MrkA mAb Kp3; MAb Kp3
Consider B1, for which the EC50 (read off the curve) (usually the concentration at which the effect is half-maximal) in experiment [1] was around 0.01 µg/mL; in experiment [2] it was around 0.08 µg/mL; in experiment [3] it was around 0.01 µg/mL. The Kd (commonly the constant that tells how readily two partners part at equilibrium) in experiment [4] is 0.15 nM. Besides, in experiment [4], the koff (usually the first-order rate constant of dissociation) was 1.2e-05 s⁻¹. Further, the kon (in general, a measure of how fast the partners come together) in experiment [4] amounted to 76000 M⁻¹ s⁻¹. Moreover, the binding result in experiment [5] and in experiment [6] was “no binding” each time.

B2: anti-MrkA clone 4 (IgG1) (antibody, V domains shown)
VH: QLQLQESGPGLVKPSGTLSLTCAVSGDSIDNANWWSWVRQTPGKGLEWIGEIYHSGTTYYNPSLKSRVTISIDNSKNQFSLALTSVTAADTAVYYCARDRDITSRGTFDVWGRGTMVTVSS
VL: DIQMTQSPSTLSASIGDRVTITCRASEGIYHWLAWYQQKPGKAPKLLIYKASSLASGAPSRFSGSGSGTDFTLTISSLQPDDFATYYCQQYSNYPLTFGGGTKLEIK
notes: also called St2_C4; IgG clone 4
Regarding B2, the “EC50 (read off the curve)” value in experiment [1] was around 0.1 µg/mL. The “EC50 (read off the curve)” value in experiment [3] was around 0.01 µg/mL. For the same molecule, in experiment [4], the Kd was 3.61 nM, the koff came to 0.000146 s⁻¹ and the kon amounted to 40600 M⁻¹ s⁻¹.

B3: anti-MrkA clone 5 (IgG1) (antibody, V domains shown)
VH: QVQLVQSGAEVKKPGASLKVSCKASGYTFTAYYMHWVRQAPGHGLEWMGWINPSSGGTNSAQKFQGRVTMTRDTSINTAYMELSRLTSDDTAVYYCARGTIGAAGNYWGQGTLVTVSS
VL: QSVLTQPPSASGTPGQRVTISCSGSRPNIGGNTVNWYQQLPGAAPKLLIYSNSQRPSGVPDRFSGSKYGTSASLAISGLQSDDEADYYCAAWDDSLTGPVFGGGTKLTIL
notes: also called St3_C5; IgG clone 5
For the molecule B3, the “EC50 (read off the curve)” value in experiment [1] was around 0.2 µg/mL. For the same molecule, the “EC50 (read off the curve)” value in experiment [3] was around 0.01 µg/mL. In experiment [4], the Kd amounted to 3.54 nM, the koff amounted to 9.2e-05 s⁻¹ and the on-rate constant (kon) was determined as 26000 M⁻¹ s⁻¹.

B4: Clone 5 Fab (Fab, V domains shown)
VH: QVQLVQSGAEVKKPGASLKVSCKASGYTFTAYYMHWVRQAPGHGLEWMGWINPSSGGTNSAQKFQGRVTMTRDTSINTAYMELSRLTSDDTAVYYCARGTIGAAGNYWGQGTLVTVSS
VL: QSVLTQPPSASGTPGQRVTISCSGSRPNIGGNTVNWYQQLPGAAPKLLIYSNSQRPSGVPDRFSGSKYGTSASLAISGLQSDDEADYYCAAWDDSLTGPVFGGGTKLTIL
notes: also called Clone 5 (Fab format)
In experiment [7], B4 yielded a Kd of 1520 nM, a koff of 0.0782 s⁻¹ and a kon of 50000 M⁻¹ s⁻¹.

B5: anti-MrkA clone 6 (IgG1) (antibody, V domains shown)
VH: QVQLVQSGAEVRKPGASVTLSCRTSGYTFTSYAVHWVRQAPGQGLEWMGGVNGGNGNTRFSQKFQDRLMIVRDRSANTASMELRSLTSEDTAVYYCARADDCSGVGCHPWFDPWGQGTLVTVSS
VL: SVILTQPPSVSVSPGQTANITCSGDKLGDKYTSWYLQKPGQSPVLLIFQDTKRPSDIPERFSGSNSGNTATLTISGTQAVDEADYYCQAWDSDSGTATFGGGTKLTVL
notes: also called St4_C6; IgG clone 6
Regarding B5, in experiment [1], the “EC50 (read off the curve)” value is around 0.01 µg/mL. Also, the 50% effective concentration (EC50 (read off the curve)) in experiment [3] was around 0.01 µg/mL. For the same molecule, in experiment [4], the Kd worked out at 8.8 nM, the koff was found to be 0.0002 s⁻¹ and the kon was determined as 22000 M⁻¹ s⁻¹.

B6: anti-MrkA clone 1 (IgG1) (antibody, V domains shown)
VH: QVQLVQSGAEVRKPGASVTVFCRTSGYIFTSYAVHWVRQAPGQGLEWMGGINGGNGNTRISQRFQDRLMITRDRSANTASMELRSLTSEDTAIYYCARADDCSGVGCHPWFDPWGRGTLVTVSS
VL: QSVLTQPPSVSVSPGHTASITCSGDKLGDKYVSWYQQKSGQSPVLVMYKDTKRPSGIPERFSGSNSGNTATLAISGTQAVDEADYFCQAWDRSIMIFGGGTKVTVL
notes: also called St1_C1; IgG clone 1
Turning to B6, in experiment [1], the “EC50 (read off the curve)” value was around 0.01 µg/mL. Further, the “EC50 (read off the curve)” value in experiment [3] is around 0.01 µg/mL. Besides, in experiment [4], the Kd was 3.25 nM, the koff turned out to be 0.00017 s⁻¹ and the kon worked out at 53000 M⁻¹ s⁻¹.

B7: Clone 1 Fab (Fab, V domains shown)
VH: QVQLVQSGAEVRKPGASVTVFCRTSGYIFTSYAVHWVRQAPGQGLEWMGGINGGNGNTRISQRFQDRLMITRDRSANTASMELRSLTSEDTAIYYCARADDCSGVGCHPWFDPWGRGTLVTVSS
VL: QSVLTQPPSVSVSPGHTASITCSGDKLGDKYVSWYQQKSGQSPVLVMYKDTKRPSGIPERFSGSNSGNTATLAISGTQAVDEADYFCQAWDRSIMIFGGGTKVTVL
notes: also called Clone 1 (Fab format)
In experiment [7], B7 yielded a Kd of 2.76 nM, a koff of 0.00034 s⁻¹ and a kon of 150000 M⁻¹ s⁻¹.

B8: Kp16 (antibody, V domains shown)
VH: QVQLQQSGAEVKKPGASVKVSCKASGYALTTYYMHWVRQAPGQGLQWMGMINPSSGSTIYAQPFRGRVTLTRDTSSGTVFMDLSSLTSEDTAIYYCARGNYGSSFGYWGKGTMVTVSS
VL: not shown
Consider B8, for which the concentration for a half-maximal effect (EC50 (read off the curve)) in experiment [2] is around 0.08 µg/mL.

For the origin of these results see patent US20190062411A1 (AstraZeneca / MedImmune, published 2019).
